Source: publication PMC7347655, “Mutational analysis of the essential lipopolysaccharide-transport protein LptH of Pseudomonas aeruginosa to uncover critical oligomerization sites” (Scientific Reports, 2020)

B1: wild-type LptH (natural protein, Pseudomonas aeruginosa, UniProt Q9HVV7 25-175, looked up)
chain: LPSDREQPIRVQADSAELDDKQGVAVYRGDVVVTQGSTKLTGNTVTLKQDKNGDIEVVTSVGKPAYYEQKPAPDKDVTKAYGLTIQYFVTQNRVVLIDQAKVIQEGNTFEGEKIVYDTQRQIVNAGRATGSQVTSPRPRIDMVIQPKKKAQ
notes: Cloned NdeI/HindIII into pET28b; the vector's linker between the His tag and the protein is not described; no tag removal is described; also called LptH6His; PA4460; not shown: His6, N-terminal, kept
B2: LptH_β15mut (natural protein)
chain: LPSDREQPIRVQADSAELDDKQGVAVYRGDVVVTQGSTKLTGNTVTLKQDKNGDIEVVTSVGKPAYYEQKPAPDKDVTKAYGLTIQYFVTQNRVVLIDQAKVIQEGNTFEGEKIVYDTQRQIEPDGRATGSQVTSPRPRIDMVIQPKKKAQ
notes: not shown: His6, N-terminal, kept
B3: LptH_β15del (natural protein)
chain: LPSDREQPIRVQADSAELDDKQGVAVYRGDVVVTQGSTKLTGNTVTLKQDKNGDIEVVTSVGKPAYYEQKPAPDKDVTKAYGLTIQYFVTQNRVVLIDQAKVIQEGNTFEGEKIVYDTQRQIGRATGSQVTSPRPRIDMVIQPKKKAQ
notes: As m1 with a 3-residue deletion in strand β15; aggregation prevented concentrations above 0.9 mg/mL; not shown: His6, N-terminal, kept

Molecular target: the molecule itself
Test: SEC; 100 uL of purified protein (0.9-2.0 mg/mL, a stated concentration for each variant) on a TSK-GEL G3000PWXL column, 20 mM Tris-HCl pH 8.0, 250 mM NaCl, 0.7 mL/min, detection at 280 nm; oligomerization state estimated from the apparent MW by a calibration curve

Protein | stoichiometry N
B1 | 2
B2 | 2
B3 | 2
